Values quoted from earlier work in article PMC12469268.

Key:
[1] = target: α1A-adrenoceptor (Homo sapiens) (UniProt P35348); assay: 3H-prazosin competition binding
[2] = target: integrin αvβ3 (Homo sapiens) (UniProt P06756)
[3] = target: α2B-adrenoceptor (Homo sapiens) (UniProt P18089)
[4] = target: α2A-adrenoceptor (Homo sapiens) (UniProt P08913)
[5] = target: α2C-adrenoceptor (Homo sapiens) (UniProt P18825)

In the case of AdTx1 (from UniProt P85092), the Ki [1] is listed as 0.35 nM.

For “CTX A5 (cardiotoxin A5) (from UniProt P62375)”, the Kd [2] is listed as 300 nM.

In the case of ρ-Da1b (from UniProt P86419), the Ki [3] is given as 73 nM, the Ki [4] is given as 14 nM and the Ki [5] is given as 38 nM.
